Assay results taken from the supplement of paper PMC9112550, “Optimization of the antimicrobial peptide Bac7 by deep mutational scanning” (BMC Biology, 2022).

test system: Escherichia coli TOP10; assay: shrunken log2 fold change of peptide-encoding DNA abundance (4.5 h post-induction vs induction); higher = less antimicrobial activity (less host growth inhibition); conditions: time post-induction: 4.5 h; library: site-saturation at positions 5, 18, 19, 20
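Also: peptides expressed intracellularly from a pBAD plasmid library in pooled LB shake-flask culture, induced with 0.3% L-arabinose, DNA abundance read by NGS, three biological replicates, DESeq2 with apeglm shrinkage.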

Sequence	shrunken log2 fold change
RRIRFRPPRLPRPRPRPRVDPRP	-0.055
RRIRFRPPRLPRPRPRPRVKPRP	-0.154
RRIRFRPPRLPRPRPRPRYEPRP	-0.598
RRIRFRPPRLPRPRPRPRYGPRP	-0.299
RRIRFRPPRLPRPRPRPRYQPRP	-0.738
RRIRFRPPRLPRPRPRPSAQPRP	0.24
RRIRFRPPRLPRPRPRPSATPRP	0.0473
RRIRFRPPRLPRPRPRPSCDPRP	-0.314
RRIRFRPPRLPRPRPRPSCEPRP	-0.619
RRIRFRPPRLPRPRPRPSDAPRP	-0.00375
RRIRFRPPRLPRPRPRPSDEPRP	-0.308
RRIRFRPPRLPRPRPRPSERPRP	-0.0251
RRIRFRPPRLPRPRPRPSFMPRP	-0.393
RRIRFRPPRLPRPRPRPSIIPRP	-0.279
RRIRFRPPRLPRPRPRPSILPRP	-0.442
RRIRFRPPRLPRPRPRPSKHPRP	0.0257
RRIRFRPPRLPRPRPRPSKLPRP	-0.42
RRIRFRPPRLPRPRPRPSMAPRP	0.0143
RRIRFRPPRLPRPRPRPSNKPRP	-0.0849
RRIRFRPPRLPRPRPRPSNNPRP	-0.702
RRIRFRPPRLPRPRPRPSQIPRP	-0.253
RRIRFRPPRLPRPRPRPSQQPRP	-0.277
RRIRFRPPRLPRPRPRPSQSPRP	-0.0504
RRIRFRPPRLPRPRPRPSQVPRP	-0.398
RRIRFRPPRLPRPRPRPSSTPRP	-0.325

Sequence	shrunken log2 fold change
RRIRFRPPRLPRPRPRPSTDPRP	-0.667
RRIRFRPPRLPRPRPRPSTIPRP	-0.45
RRIRFRPPRLPRPRPRPSTLPRP	-0.757
RRIRFRPPRLPRPRPRPSWTPRP	-0.561
RRIRFRPPRLPRPRPRPSYGPRP	-0.37
RRIRFRPPRLPRPRPRPSYIPRP	-0.41
RRIRFRPPRLPRPRPRPTAIPRP	-0.0113
RRIRFRPPRLPRPRPRPTCLPRP	-0.249
RRIRFRPPRLPRPRPRPTEEPRP	0.0249
RRIRFRPPRLPRPRPRPTIEPRP	-0.037
RRIRFRPPRLPRPRPRPTNDPRP	-0.414
RRIRFRPPRLPRPRPRPTNLPRP	-0.291
RRIRFRPPRLPRPRPRPTPCPRP	0.107
RRIRFRPPRLPRPRPRPTPGPRP	0.677
RRIRFRPPRLPRPRPRPTPTPRP	0.471
RRIRFRPPRLPRPRPRPTPWPRP	0.421
RRIRFRPPRLPRPRPRPTQLPRP	0.364
RRIRFRPPRLPRPRPRPTRPPRP	0.776
RRIRFRPPRLPRPRPRPTRRPRP	0.928
RRIRFRPPRLPRPRPRPTRYPRP	0.172
RRIRFRPPRLPRPRPRPTTGPRP	-0.0819
RRIRFRPPRLPRPRPRPTTKPRP	-0.167
RRIRFRPPRLPRPRPRPTVAPRP	0.226
RRIRFRPPRLPRPRPRPTVDPRP	-0.175
RRIRFRPPRLPRPRPRPTVHPRP	-0.238

Sequence	shrunken log2 fold change
RRIRFRPPRLPRPRPRPTWEPRP	-0.0897
RRIRFRPPRLPRPRPRPTWTPRP	-0.11
RRIRFRPPRLPRPRPRPVAQPRP	0.0899
RRIRFRPPRLPRPRPRPVASPRP	0.0266
RRIRFRPPRLPRPRPRPVATPRP	0.547
RRIRFRPPRLPRPRPRPVAWPRP	0.119
RRIRFRPPRLPRPRPRPVCLPRP	-0.121
RRIRFRPPRLPRPRPRPVDAPRP	0.183
RRIRFRPPRLPRPRPRPVDMPRP	0.00603
RRIRFRPPRLPRPRPRPVFMPRP	-0.0805
RRIRFRPPRLPRPRPRPVFYPRP	-0.536
RRIRFRPPRLPRPRPRPVGNPRP	0.294
RRIRFRPPRLPRPRPRPVIRPRP	-0.68
RRIRFRPPRLPRPRPRPVLTPRP	-0.213
RRIRFRPPRLPRPRPRPVMVPRP	-1.14
RRIRFRPPRLPRPRPRPVNDPRP	-0.0167
RRIRFRPPRLPRPRPRPVPDPRP	-0.136
RRIRFRPPRLPRPRPRPVPVPRP	0.143
RRIRFRPPRLPRPRPRPVRGPRP	0.576
RRIRFRPPRLPRPRPRPVSDPRP	0.00637
RRIRFRPPRLPRPRPRPVTVPRP	-0.264
RRIRFRPPRLPRPRPRPVVFPRP	-0.119
RRIRFRPPRLPRPRPRPVVYPRP	-0.127
RRIRFRPPRLPRPRPRPVWEPRP	0.00583
RRIRFRPPRLPRPRPRPVWFPRP	-0.182

Sequence	shrunken log2 fold change
RRIRFRPPRLPRPRPRPVYLPRP	-0.721
RRIRFRPPRLPRPRPRPWDCPRP	0.00208
RRIRFRPPRLPRPRPRPWDRPRP	-0.167
RRIRFRPPRLPRPRPRPWDYPRP	-0.387
RRIRFRPPRLPRPRPRPWEAPRP	-0.0969
RRIRFRPPRLPRPRPRPWGGPRP	0.162
RRIRFRPPRLPRPRPRPWHMPRP	-0.121
RRIRFRPPRLPRPRPRPWIKPRP	-0.187
RRIRFRPPRLPRPRPRPWIRPRP	-0.205
RRIRFRPPRLPRPRPRPWIWPRP	0.0425
RRIRFRPPRLPRPRPRPWKHPRP	-0.587
RRIRFRPPRLPRPRPRPWKKPRP	-0.00973
RRIRFRPPRLPRPRPRPWLLPRP	-0.343
RRIRFRPPRLPRPRPRPWLSPRP	-0.129
RRIRFRPPRLPRPRPRPWMDPRP	-0.347
RRIRFRPPRLPRPRPRPWMFPRP	-0.451
RRIRFRPPRLPRPRPRPWMNPRP	-0.708
RRIRFRPPRLPRPRPRPWMVPRP	-0.227
RRIRFRPPRLPRPRPRPWNGPRP	0.228
RRIRFRPPRLPRPRPRPWNLPRP	0.0325
RRIRFRPPRLPRPRPRPWNPPRP	-0.222
RRIRFRPPRLPRPRPRPWPCPRP	-0.229
RRIRFRPPRLPRPRPRPWPGPRP	0.112
RRIRFRPPRLPRPRPRPWPMPRP	-0.117
RRIRFRPPRLPRPRPRPWQHPRP	-0.0848

Sequence	shrunken log2 fold change
RRIRFRPPRLPRPRPRPWQLPRP	-0.234
RRIRFRPPRLPRPRPRPWRVPRP	0.0748
RRIRFRPPRLPRPRPRPWSAPRP	-0.429
RRIRFRPPRLPRPRPRPWSGPRP	-0.221
RRIRFRPPRLPRPRPRPWTIPRP	-0.238
RRIRFRPPRLPRPRPRPWTLPRP	-0.259
RRIRFRPPRLPRPRPRPWTTPRP	-0.0381
RRIRFRPPRLPRPRPRPWVHPRP	0.0589
RRIRFRPPRLPRPRPRPWVRPRP	0.0245
RRIRFRPPRLPRPRPRPWYNPRP	-0.134
RRIRFRPPRLPRPRPRPYAKPRP	-0.552
RRIRFRPPRLPRPRPRPYCAPRP	-0.517
RRIRFRPPRLPRPRPRPYDCPRP	0.0187
RRIRFRPPRLPRPRPRPYEFPRP	-0.245
RRIRFRPPRLPRPRPRPYGEPRP	-0.0721
RRIRFRPPRLPRPRPRPYGSPRP	-0.182
RRIRFRPPRLPRPRPRPYHEPRP	-0.26
RRIRFRPPRLPRPRPRPYHNPRP	-0.882
RRIRFRPPRLPRPRPRPYHQPRP	-0.963
RRIRFRPPRLPRPRPRPYIHPRP	-0.932
RRIRFRPPRLPRPRPRPYLMPRP	-0.687
RRIRFRPPRLPRPRPRPYLYPRP	-0.498
RRIRFRPPRLPRPRPRPYMRPRP	0.00487
RRIRFRPPRLPRPRPRPYNSPRP	-0.136
RRIRFRPPRLPRPRPRPYPFPRP	-0.69

Sequence	shrunken log2 fold change
RRIRFRPPRLPRPRPRPYPMPRP	-0.119
RRIRFRPPRLPRPRPRPYPRPRP	-0.6
RRIRFRPPRLPRPRPRPYQLPRP	-0.573
RRIRFRPPRLPRPRPRPYRRPRP	-0.506
RRIRFRPPRLPRPRPRPYTCPRP	-0.22
RRIRFRPPRLPRPRPRPYWKPRP	-0.0922
RRIRFRPPRLPRPRPRPYYWPRP	-0.485
RRIRGRPPRLPRPRPRPAASPRP	0.947
RRIRGRPPRLPRPRPRPACMPRP	0.671
RRIRGRPPRLPRPRPRPADQPRP	0.887
RRIRGRPPRLPRPRPRPAERPRP	0.388
RRIRGRPPRLPRPRPRPAETPRP	-0.0775
RRIRGRPPRLPRPRPRPAFYPRP	0.178
RRIRGRPPRLPRPRPRPAIFPRP	0.583
RRIRGRPPRLPRPRPRPAIWPRP	0.396
RRIRGRPPRLPRPRPRPAKMPRP	0.538
RRIRGRPPRLPRPRPRPAKWPRP	0.747
RRIRGRPPRLPRPRPRPALDPRP	1.4
RRIRGRPPRLPRPRPRPALLPRP	1.14
RRIRGRPPRLPRPRPRPALNPRP	0.705
RRIRGRPPRLPRPRPRPAMAPRP	0.913
RRIRGRPPRLPRPRPRPAMTPRP	1.48
RRIRGRPPRLPRPRPRPAPGPRP	1.12
RRIRGRPPRLPRPRPRPAQPPRP	0.377
RRIRGRPPRLPRPRPRPASDPRP	0.987
